Experimental data published in the nanobody polyreactivity screen of Harvey et al. (2022).

Assay: yeast display, Sf9 membrane polyspecificity reagent, FACS + sequencing; frameworks hold sequencing errors
Procedure, shortened: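 Nanobodies came from a synthetic yeast display library in Saccharomyces cerevisiae BJ5465, induced with galactose for 36–48 hours and stained for 1 hour at 4 °C with 10% biotinylated, detergent-solubilized Sf9 membrane reagent. Cells were enriched on streptavidin microbeads and then FACS-sorted, with low and high (top ~1%) gates set on anti-HA fluorescence for expression and streptavidin fluorescence for reagent binding. Each polyreactivity label reflects the gate a clone came from. Genes were amplified by colony PCR, sequenced by MiSeq 2 × 250 and filtered by CDR length.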

Row | Sequence | polyreactivity (PSR sort gate)
1 | QVHLVESGGGLVQAGGSLRLSCAASGITFQRYAMGWYREAPGKERELVASISTNGGTTYYADSVKGRFTISRHNAKNTVYLQMNSLKPEDTAVYYCNAESGYVYYIRYNYWGQGTQVTVSS | high polyreactivity
2 | QVHLVESGGGLVQAGGSLRLSCAASGITFRRYGMGWYRQAPGKERELVATITSSVGSRTYYADSVKGRFTISRDNAKNTVYLQMNSLKPEDTAVYYCAADHRVYDYEYWGQGTQVTVSS | low polyreactivity
3 | QVHLVESGGGLVQAGGSLRLSCAASGITFYRNAMGWYRQPRGKEMELVAAITWNGGRTYYADSVKGRFTISRDNAKNTVYLQMNSLKPEDTAVYYCAADSGSRNLASYRYYSWGQGTQVTVSS | low polyreactivity
4 | QVHLVESGGGLVQAGGSLRLSCAASGLIFVDNAMGWYRQAPGKERELVAAIDSGGSTNYADSVKGRFTISRDNEKNTVYLQMNSLKTEDTAVYYCAADWIYAPWYYQECVEYYYWGQGTQVTVSS | low polyreactivity
5 | QVHLVESGGGLVQAGGSLRLSCAASGLTFYSNAMRWYRQAPGKERELVARISTGGSTYADSVKGRFTISRDNAKNTVYLQMNSLKPEDTGVFYCAKLPPRGIDDEYWGQATQVTVSS | low polyreactivity
6 | QVHLVESGGGLVQAGGSLRLSCAASGLTFYWYTMGWYRQAPGKERELVAAITSGGSTSYADSVKGRFTISRDNAKNTVYLQMNSLKPEDTAVYYCAADGQVSGYDYWGQGTQVTVSS | high polyreactivity
7 | QVHLVESGGGLVQAGGSLRLSCAASGNIFGVYAMGWYRQAPGKERELVAAISDSTYYADSVKGRFTISRDNAKNTVYLQMTSLKPEDTAVYYCAAAVLGRYSAGDGYWGQGPQVTVSS | low polyreactivity
8 | QVHLVESGGGLVQAGGSLRLSCAASGRIFAWNSMGWYRQAPGKERELVAAITYNGGSTYYADSVKGRFTISRDNAKNTVYLQMNSLKPEDTAVYYCNKVTRSPAQGYGYWGQGTQVTVSS | high polyreactivity
9 | QVHLVESGGGLVQAGGSLRLSCAASGRIFGPYTMGWYIQAPGKEREFVAAITRRGGSTYYADSVKGRFTISRDNAKNTVYLQMNSLKPEDTAVYSCAAGGQKRSLGYSWGQGTQVTVSS | low polyreactivity
10 | QVHLVESGGGLVQAGGSLRLSCAASGRIFRPYAMGWYRQAPGKERELVAGLTSSGGSTYYADSVKGRFTISRDNAKNTVYLHMNSRKPEDTALYYCAAGPDYGWRRYDYWGQGTQVTVSS | low polyreactivity
11 | QVHLVESGGGLVQAGGSLRLSCAASGRIFSRNVMGWYRQAPGKERELVAAISSSGSTYADSVKGRFTISRDNAKNTVYLQMNSLKPEDTAVYYCAAVIYLWGQGTQVTVSS | high polyreactivity
12 | QVHLVESGGGLVQAGGSLRLSCAASGRIFYGYAMGWYRQAPGKEREFVAAITVSAGSTYYADSVKGRFTISRDNAKNTVYLQMNSLKPEDTAVYYCAGENGSKEFDYWGQGTQVTVSS | low polyreactivity
13 | QVHLVESGGGLVQAGGSLRLSCAASGRNFGYNAMGWYRQAPRKEREFVASISSSGGLTYYSDSVKGRFTISRDNAKNTVYLQMNSLKPEDSAFYDCARQGYYLYSKYDYWGQGTQVTVSS | high polyreactivity
14 | QVHLVESGGGLVQAGGSLRLSCAASGRTFGINAMGWYRQAPGKERELDAVISFGDGGTYYADSVKGRFTISRDNAKNTVYLQMKSLKPEDTAVYYCATDYQSTSVWGGHFVINPYDYWGQGTQVTVSS | low polyreactivity
15 | QVHLVESGGGLVQAGGSLRLSCAASGRTFHVYAMGWYRQAPGKEREFVAFISRRGGSTYYADSVKGRFTISRDNAKNTVYLQMNSLKPEDTAVYYCNAKYPSNYVVQDDYWGQGTQVTVSS | high polyreactivity
16 | QVHLVESGGGLVQAGGSLRLSCAASGRTFIENAMGWYRQAPGKERELVAAIFSGGSTYYADSVKGRFTISRDNAKKTVDLQLNSLKPEDTAVYYCDARFARYDWSMYYWGQGTQVTVSS | low polyreactivity
17 | QVHLVESGGGLVQAGGSLRLSCAASGRTFIKYAMGWYIQAPGKERELVAAISVSGGRTYYADSVKGRFTISRDKAKNTVYLQMNSLKPEDTAVYYCNKVRVGSLRGYWGQGTQVTVSS | high polyreactivity
18 | QVHLVESGGGLVQAGGSLRLSCAASGRTFNVYAMGWYRQAPGKERELVASISSSDTTNYADSVKGRFTISRDNAKNTVYLQMNSLKPEDTAVYYCAADYTPDLLSKVDYWGQGTQVTVSS | low polyreactivity
19 | QVHLVESGGGLVQAGGSLRLSCAASGRTFPYNAMGWYRQAPGKERELVATIDSSGTRTFYADSVKGRFTISRDNANNTVYLQMNSLKPEDTAVYYCAKGWYAYKLYGYDYWGQGTQVTVSS | low polyreactivity
20 | QVHLVESGGGLVQAGGSLRLSCAASGRTFRLYAMAWSRQAPGKERELVARISRGGSTYYADSVKGRFTISRDNAKNTVYLLMNSLKREDTAVYYCAAEGWGLSHRYDYWGQGTQVTVSS | high polyreactivity
21 | QVHLVESGGGLVQAGGSLRLSCAASGRTFSRYAMGWYRQAPGKERELVAGISLSGTSTYYADSVKGRFTISRDNAKNTVYLQMNSLIPVVTAVYYCATYSSYIPYGFDYWGQGTQVTVSS | high polyreactivity
22 | QVHLVESGGGLVQAGGSLRLSCAASGRTFVYYAMGWYRQAPGKERELVAAITSVGSTYYADSVKGRFTISRDNAKNTVYLQMNSLKPEDTAVYYCAKDTWAYPYYWPYDDYWGQGTQVTVSS | low polyreactivity

Row | Sequence | polyreactivity (PSR sort gate)
23 | QVHLVESGGGLVQAGGSLRLSCAASGRTLGGNAMGWYRQAPGKERELDAAITNSASTYADSVKGRFTISRDNAKNTVYLQMNSLKPEDTAVYYCNAPDPSDQHGDYWGQGTQVTVSS | low polyreactivity
24 | QVHLVESGGGLVQAGGSLRLSCAASGSIFGPNAMGWYRPAPGKERELVAAINGGTGTFYADSVKGRFTISRDNAKHTVYLQMNSLKPEDTAVYYCAADYGTHYFVRYYYWGQGTEVTVSS | high polyreactivity
25 | QVHLVESGGGLVQAGGSLRLSCAASGSIFGPYAMGWYRQAPGKERELVAAITYRGDSTYYADSVKGRFTISRDYAKNTVYLQINSLKPEDTAVYYCAADYFYANYDYWGQGTQVTVSS | high polyreactivity
26 | QVHLVESGGGLVQAGGSLRLSCAASGSIFGRYAMGWYRQAPGKERELVANITSGDSTNYADSVKGRFTISRDNAKNTVYLQMNSLKPEDTAVYYCAAYRIGQYDYWGQGTQVTVSS | high polyreactivity
27 | QVHLVESGGGLVQAGGSLRLSCAASGSIFGTNALGWYRQAPGKERELVAAINWSGGTTYYADSVKGRFTISRDNAKNTVYLQMNTLKPEDTAVYYCATFFFVLPPTRFDSWGQGTQVTVSS | low polyreactivity
28 | QVHLVESGGGLVQAGGSLRLSCAASGSIFINNTMGWYRQAPGKERELVAAISITGGSTYYADSVKGRFTISRDNAKNTVYLQMNSLKPEDTAVYYCAADPLQLYDYNYWGQGTQVTVSS | low polyreactivity
29 | QVHLVESGGGLVQAGGSLRLSCAASGSIFKPYTMRWYRQAPGTERELVAVITRRGGSTYYADSVKGRFTISRDNAKNTVYLQMNSLKPEDTAVYYCAAEYDYYGWWNDYWGQGTQVTVSS | high polyreactivity
30 | QVHLVESGGGLVQAGGSLRLSCAASGSIFLWYTMGWYRQAPGKERELVAAISRTGGSTYYADSVKGRFTISRDNAKNTVYLQMNSLKPEDTAVYYCAASLYSITRARYDYWGQGTQVTVSS | high polyreactivity
31 | QVHLVESGGGLVQAGGSLRLSCAASGSIFRYNVKAWYRQAPGNERQFVAANTARGGSTYYPESVKVRFTISRDYAKNTVYRQMISMKPEDTAVYYCATVSQQSRSLGIDRIYYWGQGTQVTVSS | high polyreactivity
32 | QVHLVESGGGLVQAGGSLRLSCAASGSIFSGNTMGWYRQAPGKERELVAAISGGGSTNYADSVKGRFTISRDNAKNTVYLQMNSLKPEDTAVYYCAKDWSLGASRMDYWGQGTQVTVSS | low polyreactivity
33 | QVHLVESGGGLVQAGGSLRLSCAASGSIFSWYAMGWYRQAPGKEWELVAAITWSGGSTYYADSVKGRFTISRDTAKNTVYLQMNSLKPEDTAVYYCAASYDIYGNYRRYDYWGQGTQVTVSS | high polyreactivity
34 | QVHLVESGGGLVQAGGSLRLSCAASGSIFVENAMGWYRQPPGKEREFVAAITRSGGSTYYADSVKGRFTISRDNAKNTVYLQMNSLKPEDTAVYYCAARIWDEQPAAGYYWGQGTQVTVSS | low polyreactivity
35 | QVHLVESGGGLVQAGGSLRLSCAASGSIFYINAMGWYRQPPGKDREFVARISWRSGSTSYADSVKGRFTISRDNAKNTVYLQMNSLKPEDTAVYYCNAGVFANDNGGRRDQFTWEYEYWGQGTQVTVSS | low polyreactivity
36 | QVHLVESGGGLVQAGGSLRLSCAASGSIFYSYAMGWYRQAPGKERELVASINWSGASTYYADSVKGRFTISRDNAKNTVYLQMNSLKPEDTAVYYCAADWWGYDGRYDYWGQGTQVTVSS | high polyreactivity
37 | QVHLVESGGGLVQAGGSLRLSCAASGSIFYWNAMGWYRQAPGKESELVATISSRGGRTSYADSVKGRFTLSRDNAKNTVYLQMNSLQPEDTAVDYCAKSIDGWYWRRRRYDYWGQGTQVTVSS | low polyreactivity
38 | QVHLVESGGGLVQAGGSLRLSCAASGSILVWYAMGWYRHAPGKERELVAAISQSGGRTYYADSVKGRFTISRDNAKNNVYLQMNSLKPEDTAVYYGAAFYTSYWGYDYDYWGQGTQVTVSS | low polyreactivity
39 | QVHLVESGGGLVQAGGSLRLSCAASGSIYLITAMGWYRQAPGKERELVAAISSRGTSTYYADSVKGRFTISRDNAKNTVYFQMNSLKAEDTAVYYCAARAIRANGYDYWGQCTQVTVSS | high polyreactivity
40 | QVHLVESGGGLVQAGGSLRLSCAASGSTFAKNAMGWYRQAPGKERELVAAITRSAGSTYYADSVKGRFTISRDNAKNTVYLQMNSLKPEDTAVYYCDRRVSGTPWYGYWGQGTQVTVSS | high polyreactivity
41 | QVHLVESGGGLVQAGGSLRLSCAASGSTFAPNAMGWYRQAPGKERELVASIRRGGSTHYADSVKGRFTISRDNAKNSVYLQMNSLKPEDTAVYYCATDQDPCSWYRYDYWGQGTQVTVSS | low polyreactivity
42 | QVHLVESGGGLVQAGGSLRLSCAASGSTFDDYVMGWYRQAPGKESELVAAITRSGTSTYYADSVKGRFTISRDNAKNTVYLQMNSLKPEETAVYYCAAGPFGLKPYTLGYNYWGQGTQVTVSS | high polyreactivity
43 | QVHLVESGGGLVQAGGSLRLSCAASGSTFGVYAMGWYRQAPAKERELVAAISSSTGSTYYADSVKGRFTISRDNEKNTVYLQMNSLKPEDTAVYFCAAAGYGKVRGDYWGQGSQVTVSS | low polyreactivity
